Molecular target: Human-Rat chimeric FcεRI α-chain protein (chimeric FcεRI on the cell membrane of HuRa clones) (human (extracellular domain) and rat (transmembrane and intracellular domains); rat) (UniProt P13386)
Test: cell-based or functional assay

Chain of Human-Rat chimeric FcεRI α-chain protein (chimeric FcεRI on the cell membrane of HuRa clones) (human (extracellular domain) and rat (transmembrane and intracellular domains); rat) (chain, as listed by the source mutant, form in doubt, chain 1 of 3): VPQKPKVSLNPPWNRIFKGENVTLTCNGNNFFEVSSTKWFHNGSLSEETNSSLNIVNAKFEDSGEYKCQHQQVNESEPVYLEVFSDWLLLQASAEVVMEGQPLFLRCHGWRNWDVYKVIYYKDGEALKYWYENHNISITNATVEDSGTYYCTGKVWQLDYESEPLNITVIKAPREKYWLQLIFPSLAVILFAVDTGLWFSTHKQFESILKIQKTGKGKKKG
Chain of Human-Rat chimeric FcεRI α-chain protein (chimeric FcεRI on the cell membrane of HuRa clones) (human (extracellular domain) and rat (transmembrane and intracellular domains); rat) (P13386 whole entry, stated change not applied, form in doubt, chain 2 of 3, the tested form may be a part): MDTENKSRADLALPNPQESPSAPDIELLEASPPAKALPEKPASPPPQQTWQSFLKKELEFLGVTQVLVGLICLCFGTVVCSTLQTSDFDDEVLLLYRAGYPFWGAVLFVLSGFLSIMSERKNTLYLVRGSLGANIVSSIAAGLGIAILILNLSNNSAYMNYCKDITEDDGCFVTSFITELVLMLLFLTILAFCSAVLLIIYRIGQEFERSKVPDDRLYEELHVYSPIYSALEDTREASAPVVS
Chain of Human-Rat chimeric FcεRI α-chain protein (chimeric FcεRI on the cell membrane of HuRa clones) (human (extracellular domain) and rat (transmembrane and intracellular domains); rat) (P20411 19-86, stated change not applied, form in doubt, chain 3 of 3): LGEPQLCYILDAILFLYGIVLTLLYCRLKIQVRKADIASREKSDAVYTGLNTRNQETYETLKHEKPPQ

Substance: purified human IgE (ab65866, Abcam) (from UniProt P01854 1-428) (antibody)
- luciferase expression level (NF-AT reporter), IgE-sensitized (aIgE) against not sensitized (no IgE) cells, stimulated with anti-human IgE antibody; seven HuRa clones: 100 times

— patent publication US20240309389A1, “Chimeric FCeRI a-Chain Gene, Chimeric FCeRI a-Chain Protein, Cells, Analysis Kit and Analysis Method” (TEIKYO HEISEI UNIVERSITY, priority 2021, published 2024)
